“Also recorded” adds a separate entry of the source.
Columns and labels:
LuCaP 35CR organoids = assay: LuCaP 35CR organoids, ex vivo 3D Matrigel; assay type: cell-based; conditions: single treatment
Excerpt: (§1) FIGS. 9A-9E. Targeting Wnt5A by BERA-Wnt5a siRNA resensitizes LuCaP35CR PDX organoids and tumor growth to enzalutamide treatment. FIG. 9A: Organoids derived from the LuCaP PDX model were established in an ex vivo 3D Matrigel format and treated with bioengineered BERA-Wnt5a siRNA. […] FIG. 9D: Mouse body weight was unaffected by all of the treatments.
(§2) To examine if targeting Wnt5a enhances enzalutamide treatment in resistant prostate cancer, we examined the combinational effects of targeting Wnt5a and enzalutamide in an ex vivo model. Organoids derived from the LuCaP PDX model were established in an ex vivo 3D Matrigel format and treated with bioengineered BERA-Wnt5a siRNA. […] To further determine the anti-tumor effects of Wnt5a inhibition in vivo, we employed a LuCaP 35CR patient derived xenograft model, which was treated with bioengineered BERA-Wnt5a siRNA.

LuCaP 35CR PDX tumors = assay: LuCaP 35CR patient derived xenograft model, combination with enzalutamide (Example 3); assay type: in vivo, mouse; conditions: single treatment
Excerpt: as §1, §2

Wnt5A = Wnt5A expression in CWR22rv1 cells; assay type: cell-based
PS1172 CRC cells = assay: PS1172 CRC cell number, combination with enzalutamide; assay type: cell-based; conditions: Wnt5a siRNA + enzalutamide 20 μM, 3 days and 6 days
Protocol: (§3) FIGS. 5A-5B. […] Resistant C4-2B MDVR and PS1172 CRC prostate cancer cells were treated with either enzalutamide (Enza) or Wnt5a siRNA (#1) or the combination (#1+Enza) for three days and 5 days, and the cell numbers were determined.
(§4) Enzalutamide resistant C4-2B MDVR cells and PS1172 CRC cells were treated with either enzalutamide (20 μM) or Wnt5a siRNA (#1) or their combination (enza+#1) for 3 days and 5 days (C4-2B MDVR cells) or 3 days and 6 days (PS1172 CRC cells), and the cell numbers were determined.

C4-2B MDVR cells = assay: C4-2B MDVR cell number, combination with antiandrogens; assay type: cell-based
Protocol: as §3
FIGS. 6A-6C. […] Resistant C4-2B MDVR prostate cancer cells were treated with either enzalutamide (Enza, 20 uM) or tRNA-1 (10 nM) or tRNA-2 (10 nM) or the combination (combination) for 3 days and 6 days, and the cell numbers were determined.
FIGS. 7A-7B. Combination of tRNA Wnt5a with antiandrogens in C4-2B MDVR cells. C4-2B MDVR cells were treated with tRNA Wnt5a and antiandrogens such as apalutamide (Apa), darolutamide (Daro), enzalutamide (enza) individually or combination for 3 days and 6 days and the cell number was determined.
as §4
Resistant C4-2B MDVR prostate cancer cells were treated with either enzalutamide (Enza, 20 uM) or tRNA-1 (10 nM) or tRNA-2 (10 nM) or their combination for 3 days and 6 days, and the cell numbers were determined.
Knockdown of Wnt5a by tRNA-Wnt5a siRNA enhances anti-androgen (enzalutamide, apalutamide, darolutamide) treatments (FIG. 7A). Resistant C4-2B MDVR cells were treated with tRNA Wnt5a siRNA-2 and antiandrogens such as apalutamide (Apa), darolutamide (Daro), enzalutamide (enza) individually or their combination for 3 days and 6 days and the cell number was determined.

[1] = test system: enzalutamide resistant CWR22rv1 cells; assay: CWR22rv1 cell growth, alone and with enzalutamide; assay type: cell-based; conditions: for improvement of enzalutamide treatment: CWR22rv1 cells, combined with enzalutamide; for cell growth: enzalutamide resistant CWR22rv1 cells, single agent
Excerpt: In addition to spectrometry and gel electrophoresis analyses of target Wnt5A-siRNAs during the purification described above, we conducted HPLC analysis to validate the purity of isolated siRNAs and LC-MS studies to verify RNA sequence and identify possible posttranscriptional modifications.

Molecule: CNC(=O)c1ccc(N2C(=S)N(c3ccc(C#N)c(C(F)(F)F)c3)C(=O)C2(C)C)cc1F [enzalutamide]
- organoid response (LuCaP 35CR organoids): resistant
- PSA expression (LuCaP 35CR PDX tumors): without reaching significance
- tumor growth (LuCaP 35CR PDX tumors): resistant

Molecule: Wnt5a siRNA (#1): siRNA specific to Wnt5a, 5′-ACAAACUGGUCCACGAUCUCCGUGC-3′ (expressed or natural sequence)
- Wnt5A expression (Wnt5A): downregulated Wnt5A expression
- effect on enzalutamide treatment (cell numbers) (PS1172 CRC cells): synergistically enhanced enzalutamide treatment; also recorded: re-sensitize cells to enzalutamide
- effect on enzalutamide treatment (cell numbers) (C4-2B MDVR cells; Wnt5a siRNA + enzalutamide 20 μM, 3 days and 5 days): synergistically enhanced enzalutamide treatment; also recorded: re-sensitize cells to enzalutamide

B1: tRNA-siWnt5A-1: bioengineered tRNA-pre-miRNA chimera (human tRNA Leu / pre-miR-34a carrier) carrying Wnt5a siRNA #1, FIG. 8A, SEQ ID NO:20 (nucleic acid)
chain: NNCNCAACANAAAAAACNNNGNGNAANACNNGNAACGCNGAANNCACCAGGANGGCCGAGNGGNNAAGGCGNNGGACNGGCCAGCNGNGAGNGNNNCNNACAAACUGGUCCACGAUCUCCGNGNGAGCAANAGNAAGGAAUGGAGAUCGGGAUCCAGUUUGCUAGAAGNGCNGCACGNNGNNGGCCCGANCCAANGGACANANGNCCGCGNGGGNNCGAACCCCACNCCNGGNACCACNGCAGANCCNNAGCGAAAGCNAAGGANNNNNNNN
modifications: modified_base (1)..(2) t or u; modified_base (4)..(4) t or u; modified_base (10)..(10) t or u; modified_base (18)..(20) t or u; modified_base (22)..(22) t or u; modified_base (24)..(24) t or u; modified_base (27)..(27) t or u; modified_base (30)..(31) t or u; modified_base (33)..(33) t or u; modified_base (39)..(39) t or u; modified_base (43)..(44) t or u; modified_base (53)..(53) t or u; modified
- Wnt5A expression (Wnt5A): downregulated Wnt5A expression
- effect on enzalutamide treatment (cell numbers) (C4-2B MDVR cells; chimera 10 nM + Enza 20 uM, 3 days and 6 days, listed as tRNA-Wnt5a siRNA-1): enhanced enzalutamide; also recorded: synergizes enzalutamide
- improvement of enzalutamide treatment [1]: improved enzalutamide treatment; also recorded: improved enza treatment
- cell growth [1]: inhibited cell growth

B2: tRNA-siWnt5A-2: bioengineered tRNA-pre-miRNA chimera (human tRNA Leu / pre-miR-34a carrier) carrying Wnt5a siRNA #2, FIG. 8B, SEQ ID NO:21 (nucleic acid)
chain: NNCNCAACANAAAAAACNNNGNGNAANACNNGNAACGCNGAANNCACCAGGANGGCCGAGNGGNNAAGGCGNNGGACNGGCCAGCNGNGAGNGNNNCNNCUAGGAAGAACUUGGAAGACAUNGNGAGCAANAGNAAGGAAGUGUCUUCCGGUCUUUUCCUACUAGAAGNGCNGCACGNNGNNGGCCCGANCCAANGGACANANGNCCGCGNGGGNNCGAACCCCACNCCNGGNACCACNGCAGANCCNNAGCGAAAGCNAAGGANNNNNNNN
modifications: modified_base (1)..(2) t or u; modified_base (4)..(4) t or u; modified_base (10)..(10) t or u; modified_base (18)..(20) t or u; modified_base (22)..(22) t or u; modified_base (24)..(24) t or u; modified_base (27)..(27) t or u; modified_base (30)..(31) t or u; modified_base (33)..(33) t or u; modified_base (39)..(39) t or u; modified_base (43)..(44) t or u; modified_base (53)..(53) t or u; modified
- Wnt5A expression (Wnt5A): downregulated Wnt5A expression
- effect on enzalutamide treatment (cell numbers) (C4-2B MDVR cells; chimera 10 nM + Enza 20 uM, 3 days and 6 days, listed as tRNA-Wnt5a siRNA-2): enhanced enzalutamide; also recorded: synergizes enzalutamide
- effect on apalutamide treatment (cell number) (C4-2B MDVR cells; combination with apalutamide, 3 days and 6 days): enhances
- effect on darolutamide treatment (cell number) (C4-2B MDVR cells; combination with darolutamide, 3 days and 6 days): enhances
- effect on enzalutamide treatment (cell number) (C4-2B MDVR cells; combination with enzalutamide, 3 days and 6 days): enhances
- improvement of enzalutamide treatment [1]: improved enzalutamide treatment; also recorded: improved enza treatment
- cell growth [1]: inhibited cell growth

Reference: patent US20230407297A1, “BIOENGINEERED WNT5A THERAPEUTICS FOR ADVANCED CANCERS” (The Regents of the University of California, priority 2020, published 2023)
